94 variants from the supplement of paper PMC10567573 can be followed below.

B1: FUT8 (parent)
chain: YPSYKVREKIETVKYPTYPEAEK
B2: TFE3 (parent)
chain: ELPNIKREISETEAKALLKERQKK
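Note: lentivirally expressed fusions sorted by FACS into six bins by GFP to DsRed ratio, PSI derived from sequencing read proportions per bin multiplied by bin number.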

Variants of B1 are the subject of one data set. Description: protein stability index of a GFP-peptide fusion (GPS, HEK-293T) (PSI 1-6); higher = more stable. Particulars: c terminus: native.
On to EPSYKVREKIETVKYPTYPEAEK [Y1E], for which the protein stability index was determined as 4.99.
On the same count and under the same terms, to APSYKVREKIETVKYPTYPEAEK [Y1A] belongs 5.42; to DPSYKVREKIETVKYPTYPEAEK [Y1D], 5.3.
Same read-out and setting: the result for CPSYKVREKIETVKYPTYPEAEK [Y1C] reads 4.41.

Variants of B2 are the subject of a further data set. The data set is described as above. Particulars: c terminus: a fixed tail appended.
As to ELPNIKREISETEAKALLKERQGK [K23G], the protein stability index worked out at 2.42.
Regarding ELPNIKREISETEAKALLKERQMK [K23M], the protein stability index was 2.4.
Take ELPNIKREISETEAKALLKERQRK [K23R]: the protein stability index came to 2.78.
On to ELPNIKREISETEAKALLKERQSK [K23S], for which the protein stability index was determined as 2.8.
Consider ELPNIKREISETEAKALLKERQYK [K23Y], for which the protein stability index is 2.1.
The same measure, in the same setting: the result for ELPNIKREISETEAKALLKERQDK [K23D] reads 2.56; that for ELPNIKREISETEAKALLKERQWK [K23W], 2.36.
As for ELPNIKREISETEAKALLKERQVK [K23V], the protein stability index was 2.61.
Still for that read-out and setting: to ELPNIKREISETEAKALLKERQIK [K23I] belongs 2.34.
Regarding ELPNIKREISETEAKALLKERQAK [K23A], the protein stability index is 2.19.
ELPNIKREISETEAKALLKERQTK [K23T]: the protein stability index turned out to be 2.86.
Still for that read-out and setting: the result for ELPNIKREISETEAKALLKERQQK [K23Q] reads 2.45; that for ELPNIKREISETEAKALLKERQHK [K23H], 2.44; that for ELPNIKREISETEAKALLKERQNK [K23N], 2.85.
For ELPNIKREISETEAKALLKERQPK [K23P], the protein stability index worked out at 2.35.
As to ELPNIKREISETEAKALLKERQCK [K23C], the protein stability index was determined as 3.09.
ELPNIKREISETEAKALLKERQLK [K23L]: the protein stability index was 2.91.
ELPNIKREISETEAKALLKERQFK [K23F]: the protein stability index was 2.36.
Take ELPNIKREISETEAKALLKERQEK [K23E]: the protein stability index was 2.64.
Same read-out and setting: to ELPNIKREISETEAKALLKEYQKK [R21Y] belongs 2.72.
Still for that read-out and setting: to ELPNIKREISETEAKALLKEVQKK [R21V] belongs 2.53; to ELPNIKREISETEAKALLKEIQKK [R21I], 2.66; to ELPNIKREISETEAKALLKEKQKK [R21K], 2.5.
Consider ELPNIKREISETEAKALLKESQKK [R21S], for which the protein stability index came out at 1.81.
Same read-out and setting: the result for ELPNIKREISETEAKALLKENQKK [R21N] reads 2.91; that for ELPNIKREISETEAKALLKEEQKK [R21E], 2.74; that for ELPNIKREISETEAKALLKEHQKK [R21H], 2.63.
Take ELPNIKREISETEAKALLKEFQKK [R21F]: the protein stability index came to 2.38.
On to ELPNIKREISETEAKALLKEGQKK [R21G], for which the protein stability index was 2.28.
The same measure, in the same setting: to ELPNIKREISETEAKALLKEWQKK [R21W] belongs 2.15.
The same measure, in the same setting: to ELPNIKREISETEAKALLKEDQKK [R21D] belongs 2.88; to ELPNIKREISETEAKALLKETQKK [R21T], 2.82; to ELPNIKREISETEAKALLKEMQKK [R21M], 2.25.
Still for that read-out and setting: to ELPNIKREISETEAKALLKECQKK [R21C] belongs 2.43; to ELPNIKREISETEAKALLKEQQKK [R21Q], 2.73; to ELPNIKREISETEAKALLKEAQKK [R21A], 3.07.
As to ELPNIKREISETEAKALLKELQKK [R21L], the protein stability index worked out at 2.97.
The same measure, in the same setting: to ELPNIKREISETEAKALLKEPQKK [R21P] belongs 2.32.
Same read-out and setting: to ELPNIKREISETEAKALLKERTKK [Q22T] belongs 2.52; to ELPNIKREISETEAKALLKERHKK [Q22H], 2.73; to ELPNIKREISETEAKALLKERCKK [Q22C], 2.71.
Regarding ELPNIKREISETEAKALLKERDKK [Q22D], the protein stability index came out at 2.11.
Regarding ELPNIKREISETEAKALLKERMKK [Q22M], the protein stability index is 2.75.
For the variant ELPNIKREISETEAKALLKERFKK [Q22F], the protein stability index is 2.34.
On to ELPNIKREISETEAKALLKERVKK [Q22V], for which the protein stability index came out at 2.83.
ELPNIKREISETEAKALLKERSKK [Q22S]: the protein stability index is 2.73.
On to ELPNIKREISETEAKALLKERLKK [Q22L], for which the protein stability index stood at 2.24.
In the case of ELPNIKREISETEAKALLKERIKK [Q22I], the protein stability index stood at 2.52.
Still for that read-out and setting: to ELPNIKREISETEAKALLKERPKK [Q22P] belongs 2.34; to ELPNIKREISETEAKALLKERRKK [Q22R], 2.9; to ELPNIKREISETEAKALLKERGKK [Q22G], 2.77.
Same read-out and setting: the result for ELPNIKREISETEAKALLKERNKK [Q22N] reads 2.5; that for ELPNIKREISETEAKALLKERKKK [Q22K], 2.35.
In the case of ELPNIKREISETEAKALLKEREKK [Q22E], the protein stability index amounted to 2.
Still for that read-out and setting: the result for ELPNIKREISETEAKALLKERWKK [Q22W] reads 2.4.
With ELPNIKREISETEAKALLKERYKK [Q22Y], the protein stability index turned out to be 1.8.
For the variant ELPNIKREISETEAKALLKERAKK [Q22A], the protein stability index was determined as 2.73.
On the same count and under the same terms, the result for ELPNIKREISETEAKALLKERQKD [K24D] reads 2.91.
As for ELPNIKREISETEAKALLKERQKG [K24G], the protein stability index worked out at 2.76.
On the same count and under the same terms, to ELPNIKREISETEAKALLKERQKA [K24A] belongs 2.46.
Same read-out and setting: to ELPNIKREISETEAKALLKERQKT [K24T] belongs 2.79; to ELPNIKREISETEAKALLKERQKH [K24H], 2.2; to ELPNIKREISETEAKALLKERQKN [K24N], 3.05.
Regarding ELPNIKREISETEAKALLKERQKY [K24Y], the protein stability index was 2.69.
Consider ELPNIKREISETEAKALLKERQKM [K24M], for which the protein stability index is 2.19.
In the case of ELPNIKREISETEAKALLKERQKQ [K24Q], the protein stability index was found to be 2.84.
In the case of ELPNIKREISETEAKALLKERQKF [K24F], the protein stability index came to 2.03.
The same measure, in the same setting: to ELPNIKREISETEAKALLKERQKL [K24L] belongs 2.53; to ELPNIKREISETEAKALLKERQKI [K24I], 2.69.
Still for that read-out and setting: the result for ELPNIKREISETEAKALLKERQKW [K24W] reads 2.44.
On the same count and under the same terms, to ELPNIKREISETEAKALLKERQKS [K24S] belongs 2.28; to ELPNIKREISETEAKALLKERQKP [K24P], 2.17; to ELPNIKREISETEAKALLKERQKR [K24R], 2.15.
As to ELPNIKREISETEAKALLKERQKV [K24V], the protein stability index turned out to be 2.96.
For the variant ELPNIKREISETEAKALLKERQKC [K24C], the protein stability index worked out at 2.71.
In the case of ELPNIKREISETEAKALLKERQKE [K24E], the protein stability index stood at 3.37.
For ELPNIKREISETEAKALLKTRQKK [E20T], the protein stability index came out at 3.07.
Same read-out and setting: the result for ELPNIKREISETEAKALLKPRQKK [E20P] reads 2.52; that for ELPNIKREISETEAKALLKYRQKK [E20Y], 2.5; that for ELPNIKREISETEAKALLKQRQKK [E20Q], 2.77.
Still for that read-out and setting: to ELPNIKREISETEAKALLKHRQKK [E20H] belongs 2.9; to ELPNIKREISETEAKALLKIRQKK [E20I], 2.29; to ELPNIKREISETEAKALLKNRQKK [E20N], 2.9.
Turning to ELPNIKREISETEAKALLKWRQKK [E20W], the protein stability index turned out to be 2.82.
Still for that read-out and setting: the result for ELPNIKREISETEAKALLKVRQKK [E20V] reads 2.52; that for ELPNIKREISETEAKALLKRRQKK [E20R], 3.29; that for ELPNIKREISETEAKALLKKRQKK [E20K], 2.83.
As for ELPNIKREISETEAKALLKMRQKK [E20M], the protein stability index is 2.59.
Same read-out and setting: to ELPNIKREISETEAKALLKLRQKK [E20L] belongs 2.44; to ELPNIKREISETEAKALLKSRQKK [E20S], 2.67.
